The supplement of paper PMC10724198
± gives the standard deviation of the averaged measurements.

Tested on: Saccharomyces cerevisiae
Test: protein stability index of tFT-peptide fusion (C-terminal peptide) (PSI (0-1 scale)); higher = more stable (slower turnover)
Conditions: temperature: 30 C
Protocol: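 MPS profiling in S. cerevisiae of the yeast C-terminome library: the last 12 aa of each annotated ORF are fused to the C-terminus of a sfGFP-mCherry timer, after a GGGS linker. Cells are FACS-sorted into 8 mCherry/sfGFP bins and deep-sequenced. PSI runs from 0 (unstable) to 1 (stable); wild type and das1Δ backgrounds, two technical replicates each.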

[1] = genetic background: das1 deletion

| Sequence | protein stability index [1] | protein stability index (genetic background: wild type) |
| --- | --- | --- |
| TSSTPKSPSSGS [SMY1 C-terminal 12 aa] | 0.691 ± 0.018 | 0.67 ± 0.014 |
| TSAGSNIFSTGQ [BBP1 C-terminal 12 aa] | 0.699 ± 0.011 | 0.752 ± 0.043 |
| ITRTRLDSFVKT [YBR072C-A C-terminal 12 aa] | 0.696 ± 0.038 | 0.6292 ± 0.0014 |
| EINNNLGVRLVD [DMA1 C-terminal 12 aa] | 0.711 ± 0.012 | 0.697 ± 0.026 |
| PVGAGNEPINPE [URN1 C-terminal 12 aa] | 0.684 ± 0.013 | 0.704 ± 0.074 |
| KDDTPEDNLEDK [VBA5 C-terminal 12 aa] | 0.6969 ± 0.0021 | 0.71 ± 0.0088 |
| NKLKTLLAKIFD [IPI1 C-terminal 12 aa] | 0.708 ± 0.02 | 0.699 ± 0.053 |
| MEDILDETTELD [ATG40 C-terminal 12 aa] | 0.7155 ± 0.0025 | 0.715 ± 0.072 |
| DGKSVNKYGAKK [GUS1 C-terminal 12 aa] | 0.6798 ± 0.0063 | 0.699 ± 0.029 |
| VDDIVSGVRKQE [CCT3 C-terminal 12 aa] | 0.691 ± 0.028 | 0.677 ± 0.011 |
| YPAREGEVLRPN [AKR2 C-terminal 12 aa] | 0.675 ± 0.025 | 0.697 ± 0.017 |
| GIPEEFKEFTEV [MND1 C-terminal 12 aa] | 0.7022 ± 0.0026 | 0.7181 ± 0.0035 |
| SGEAAEEAEDEE [RPS9B C-terminal 12 aa] | 0.652 ± 0.023 | 0.664 ± 0.039 |
| DSEDDNDTSSES [PRP38 C-terminal 12 aa] | 0.682 ± 0.026 | 0.6733 ± 0.0012 |
| DTTFTGCTKKIL [YGL102C C-terminal 12 aa] | 0.698 ± 0.023 | 0.66 ± 0.019 |
| IVTEWVKKPCLC [MUP3 C-terminal 12 aa] | 0.546 ± 0.013 | 0.489 ± 0.01 |
| PKSFVPRDIEKK [YGR265W C-terminal 12 aa] | 0.695 ± 0.018 | 0.701 ± 0.056 |
| PSIARILEFMQS [SAY1 C-terminal 12 aa] | 0.729 ± 0.013 | 0.654 ± 0.09 |
| LGNNAVGLAKAI [PEP4 C-terminal 12 aa] | 0.7 ± 0.0012 | 0.678 ± 0.055 |
| LHENQLLKWLSK [RRN5 C-terminal 12 aa] | 0.72567 ± 0.00036 | 0.7 ± 0.008 |
| GSYATRAYGQKK [FDH1 C-terminal 12 aa] | 0.694 ± 0.011 | 0.688 ± 0.018 |

| Sequence | protein stability index [1] | protein stability index (genetic background: wild type) |
| --- | --- | --- |
| TVNLIKSQLVRG [COQ9 C-terminal 12 aa] | 0.6064 ± 0.0011 | 0.635 ± 0.047 |
| FDRVRLLVDKIT [HIR3 C-terminal 12 aa] | 0.683 ± 0.0076 | 0.234 ± 0.0042 |
| FDDSSSVSSKSD [GPC1 C-terminal 12 aa] | 0.717 ± 0.014 | 0.695 ± 0.027 |
| KISKSELEGVPS [MTC6 C-terminal 12 aa] | 0.722 ± 0.019 | 0.714 ± 0.045 |
| CKATSLLLIPEG [YBL108W C-terminal 12 aa] | 0.675 ± 0.018 | 0.659 ± 0.021 |
| MTGILKDYSHRV [TFA2 C-terminal 12 aa] | 0.715 ± 0.0083 | 0.723 ± 0.063 |
| SICPAIRRKEDY [RDT1 C-terminal 12 aa] | 0.699 ± 0.025 | 0.659 ± 0.025 |
| TLTDLRDELRGL [NUP120 C-terminal 12 aa] | 0.678 ± 0.018 | 0.721 ± 0.024 |
| SSIQDLLSKLAN [RTT103 C-terminal 12 aa] | 0.691 ± 0.02 | 0.7927 ± 0.0052 |
| MSLLGLVPVDRM [MSR1 C-terminal 12 aa] | 0.696 ± 0.00089 | 0.688 ± 0.023 |
| WTWLDGKFPTFA [GRE3 C-terminal 12 aa] | 0.751 ± 0.023 | 0.7093 ± 0.0009 |
| ADGNPLQALPQL [TOM40 C-terminal 12 aa] | 0.7077 ± 0.0065 | 0.666 ± 0.024 |
| EKRFPEVMMLEK [FET4 C-terminal 12 aa] | 0.703 ± 0.026 | 0.679 ± 0.0099 |
| CVWESMSNWLQK [YEL034C-A C-terminal 12 aa] | 0.7238 ± 0.00042 | 0.724 ± 0.015 |
| PLQWLSTWDIAP [PMT6 C-terminal 12 aa] | 0.787 ± 0.02 | 0.757 ± 0.021 |
| FNNILTKEMQKI [CLD1 C-terminal 12 aa] | 0.701 ± 0.031 | 0.717 ± 0.049 |
| LSKKDYSIDSIE [TPO3 C-terminal 12 aa] | 0.726 ± 0.011 | 0.6981 ± 0.0023 |
| ALHSEEASFHSL [AIM21 C-terminal 12 aa] | 0.709 ± 0.012 | 0.7 ± 0.021 |
| ISLVFLWVSIEV [CSM4 C-terminal 12 aa] | 0.157 ± 0.018 | 0.173 ± 0.011 |
| VNADDEIENNVD [AMN1 C-terminal 12 aa] | 0.674 ± 0.0091 | 0.669 ± 0.022 |
| NPKNLINDVRRT [CVM1 C-terminal 12 aa] | 0.704 ± 0.011 | 0.635 ± 0.025 |

| Sequence | protein stability index [1] | protein stability index (genetic background: wild type) |
| --- | --- | --- |
| LSKMYIGWLPFW [MEC1 C-terminal 12 aa] | 0.7227 ± 0.0057 | 0.6826 ± 0.002 |
| QSLLDSLAKLQK [NAB3 C-terminal 12 aa] | 0.667 ± 0.009 | 0.678 ± 0.022 |
| NPWGGYSQVQSK [COX5A C-terminal 12 aa] | 0.728 ± 0.02 | 0.688 ± 0.018 |
| DDDEDGYNPYTL [PAP2 C-terminal 12 aa] | 0.7215 ± 0.0049 | 0.697 ± 0.0073 |
| FSYIRSKQMQQK [MNE1 C-terminal 12 aa] | 0.746 ± 0.031 | 0.6666 ± 0.0065 |
| TRDAPRERSPTR [NPL3 C-terminal 12 aa] | 0.716 ± 0.016 | 0.65 ± 0.018 |
| NGKTIKDATDNK [COX19 C-terminal 12 aa] | 0.669 ± 0.015 | 0.6957 ± 0.0059 |
| AIAPTSLLTPMP [YER087C-A C-terminal 12 aa] | 0.6937 ± 0.0021 | 0.733 ± 0.013 |
| TGRDMMKSAVGF [SRO77 C-terminal 12 aa] | 0.714 ± 0.015 | 0.661 ± 0.016 |
| MGDEYVSSDEDF [HEF3 C-terminal 12 aa] | 0.7279 ± 0.0024 | 0.686 ± 0.054 |
| EEADSLYISMGL [LCD1 C-terminal 12 aa] | 0.709 ± 0.021 | 0.701 ± 0.012 |
| EQHNVLDTKKNE [SPC2 C-terminal 12 aa] | 0.687 ± 0.037 | 0.649 ± 0.029 |
| LQTMSFLMNHLI [YJL032W C-terminal 12 aa] | 0.6597 ± 0.0011 | 0.23 ± 0.042 |
| GKEHRFGLHIRS [DPH6 C-terminal 12 aa] | 0.6887 ± 0.0022 | 0.698 ± 0.026 |
| MRLTHKSKKKMK [SUE1 C-terminal 12 aa] | 0.72 ± 0.026 | 0.695 ± 0.0075 |
| HGHHNSSTSGHK [PBP1 C-terminal 12 aa] | 0.694 ± 0.015 | 0.714 ± 0.0077 |
| YEEAVDLGWNKN [OYE3 C-terminal 12 aa] | 0.721 ± 0.009 | 0.714 ± 0.042 |
| LPFQKLKHLIKK [MRX11 C-terminal 12 aa] | 0.707 ± 0.031 | 0.706 ± 0.046 |
| QEIQKKPSQQVS [BIG1 C-terminal 12 aa] | 0.698 ± 0.0083 | 0.683 ± 0.066 |
| ILLTPNNHGEMK [BDH1 C-terminal 12 aa] | 0.689 ± 0.03 | 0.684 ± 0.011 |
| INKDMTKKKMKF [MFG1 C-terminal 12 aa] | 0.689 ± 0.029 | 0.677 ± 0.029 |

| Sequence | protein stability index [1] | protein stability index (genetic background: wild type) |
| --- | --- | --- |
| MEKENSGLIAFS [HOS2 C-terminal 12 aa] | 0.7089 ± 0.0061 | 0.7064 ± 0.0059 |
| AVDYILRLFGFL [COQ2 C-terminal 12 aa] | 0.72 ± 0.013 | 0.537 ± 0.019 |
| NRKIARMRHSKR [NUP1 C-terminal 12 aa] | 0.706 ± 0.022 | 0.7119 ± 0.007 |
| SLYPRFSGRCKP [DED81 C-terminal 12 aa] | 0.703 ± 0.011 | 0.6745 ± 0.0059 |
| IRAAGGVVELIA [RPL28 C-terminal 12 aa] | 0.658 ± 0.0023 | 0.652 ± 0.038 |
| QPYRSGTLGKRR [AIR2 C-terminal 12 aa] | 0.674 ± 0.035 | 0.6998 ± 0.004 |
| KSLAECQELLKN [TPD3 C-terminal 12 aa] | 0.687 ± 0.0072 | 0.663 ± 0.061 |
| EKKIATRGAFAC [MCO32 C-terminal 12 aa] | 0.707 ± 0.01 | 0.7 ± 0.012 |
| LSVIYMGWSPFY [TEL1 C-terminal 12 aa] | 0.716 ± 0.018 | 0.773 ± 0.032 |
| KKEKISKYVSKS [OPI11 C-terminal 12 aa] | 0.725 ± 0.0098 | 0.683 ± 0.035 |
| HFNSSSPQKVEF [LSM4 C-terminal 12 aa] | 0.721 ± 0.012 | 0.738 ± 0.03 |
| NTDHKAGRSHLQ [PTC2 C-terminal 12 aa] | 0.713 ± 0.013 | 0.668 ± 0.038 |
| NQKKKFKMEFRG [SAP30 C-terminal 12 aa] | 0.6956 ± 0.0027 | 0.665 ± 0.0075 |
| DKEQQQQQQQQP [ZDS1 C-terminal 12 aa] | 0.702 ± 0.0076 | 0.708 ± 0.032 |
| SDHCWDGCWWCR [AQY2 C-terminal 12 aa] | 0.7424 ± 0.0017 | 0.765 ± 0.041 |
| SLPRQAGGRKKK [GLC7 C-terminal 12 aa] | 0.715 ± 0.033 | 0.668 ± 0.052 |
| AKKKKKRIRGFG [RRN6 C-terminal 12 aa] | 0.686 ± 0.015 | 0.671 ± 0.034 |
| TYCEKYHVPSIQ [YAE1 C-terminal 12 aa] | 0.6915 ± 0.0042 | 0.677 ± 0.04 |
| TQSTVIATTSSV [NDL1 C-terminal 12 aa] | 0.6904 ± 0.0063 | 0.694 ± 0.027 |
| ELKRSGKLTRSV [TRM7 C-terminal 12 aa] | 0.699 ± 0.0086 | 0.662 ± 0.013 |
